Paper PMC9352680, “A comprehensive thermodynamic model for RNA binding by the Saccharomyces cerevisiae Pumilio protein PUF4”

These binders were tested against T1, PUF4 RNA-binding domain (Saccharomyces cerevisiae, UniProt P25339 537-888) (assay: Mg; RNA-MaP; 20 mM Na-HEPES pH 7.4, 30 mM KOAc, 0.75 mM MgCl2, 0.1% Tween-20, 5% glycerol, 0.1 mg/mL BSA, 2 mM DTT; 25 C; 0.0125-409.6 nM protein). Conditions: tags: N-His6-TEV cleaved; C-SNAP kept, Cy3B-labelled; label: tethered on chip by stalled RNA polymerase.
T1 sequence: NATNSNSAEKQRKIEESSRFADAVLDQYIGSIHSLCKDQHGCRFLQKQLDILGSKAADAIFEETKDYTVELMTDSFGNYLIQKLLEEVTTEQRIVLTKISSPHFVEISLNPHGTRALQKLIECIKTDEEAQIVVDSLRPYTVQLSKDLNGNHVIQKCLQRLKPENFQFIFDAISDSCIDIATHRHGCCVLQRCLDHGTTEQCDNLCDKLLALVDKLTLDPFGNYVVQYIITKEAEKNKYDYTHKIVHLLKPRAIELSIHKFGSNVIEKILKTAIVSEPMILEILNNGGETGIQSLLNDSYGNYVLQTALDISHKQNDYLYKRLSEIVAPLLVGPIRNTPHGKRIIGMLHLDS

Binder	Kd [nM]
Id_ii_S2_P5E.2_K5.1_C5.2_[C-2G]_[T-1C]_H5.1_A5.1_F5.1_T5.2_[T11A]_[A12C] (ssRNA) RNA: UUUGAUUAAUAUGAUAUCGUUCUUUCUGCUGUAUUAUUAACUUCUUUCUCGAUAUCAUAUUAAUCUUU	25.4
Id_ii_S2_P5E.2_K5.1_C5.2_[C-2G]_[T-1C]_H5.1_A5.1_F5.1_T5.2_[A12T] (ssRNA) RNA: UUUGAUUAAUAUGAUAUCGUUCUUUCUGCUGUAUUAUUAUUUUCUUUCUCGAUAUCAUAUUAAUCUUU	3.07
Id_ii_S2_P5E.2_K5.1_C5.2_[C-2G]_[T-1C]_H5.1_A5.1_F5.1_T5.2_[T11A]_[A12T] (ssRNA) RNA: UUUGAUUAAUAUGAUAUCGUUCUUUCUGCUGUAUUAUUAAUUUCUUUCUCGAUAUCAUAUUAAUCUUU	3.35
Id_ii_S2_P5E.2_K5.1_C5.2_[C-2G]_H5.1_A5.1_F5.1_T5.2_[A12C] (ssRNA) RNA: UUUGAUUAAUAUGAUAUCGUUCUUUCUGUUGUAUUAUUAUCUUCUUUCUCGAUAUCAUAUUAAUCUUU	18.8
Id_ii_S2_P5E.2_K5.1_C5.2_[C-2T]_[T-1G]_H5.1_A5.1_F5.1_T5.2_[A12C] (ssRNA) RNA: UUUGAUUAAUAUGAUAUCGUUCUUUCUUGUGUAUUAUUAUCUUCUUUCUCGAUAUCAUAUUAAUCUUU	1.84
Id_ii_S2_P5E.2_K5.1_C5.2_[C-2G]_H5.1_A5.1_F5.1_T5.2_[T11A]_[A12T] (ssRNA) RNA: UUUGAUUAAUAUGAUAUCGUUCUUUCUGUUGUAUUAUUAAUUUCUUUCUCGAUAUCAUAUUAAUCUUU	3.86
Id_ii_S2_P5E.2_K5.1_C5.2_[C-2G]_[T-1C]_H5.1_A5.1_F5.1_T5.2_[T11A] (ssRNA) RNA: UUUGAUUAAUAUGAUAUCGUUCUUUCUGCUGUAUUAUUAAAUUCUUUCUCGAUAUCAUAUUAAUCUUU	7.06
Id_ii_S2_P5E.2_K5.1_C5.2_[C-2T]_[T-1G]_H5.1_A5.1_F5.1_T5.2_[T11A] (ssRNA) RNA: UUUGAUUAAUAUGAUAUCGUUCUUUCUUGUGUAUUAUUAAAUUCUUUCUCGAUAUCAUAUUAAUCUUU	1.72
Id_ii_S2_P5E.2_K5.1_C5.2_[C-2T]_[T-1G]_H5.1_A5.1_F5.1_T5.2_[T11G]_[A12C] (ssRNA) RNA: UUUGAUUAAUAUGAUAUCGUUCUUUCUUGUGUAUUAUUAGCUUCUUUCUCGAUAUCAUAUUAAUCUUU	2.9
Id_ii_S2_P5E.2_K5.1_C5.2_[C-2G]_[T-1C]_H5.1_A5.1_F5.1_T5.2_[A12C] (ssRNA) RNA: UUUGAUUAAUAUGAUAUCGUUCUUUCUGCUGUAUUAUUAUCUUCUUUCUCGAUAUCAUAUUAAUCUUU	11.2
Id_ii_S2_P5E.2_K5.1_C5.2_[C-2G]_H5.1_A5.1_F5.1_T5.2_[A12T] (ssRNA) RNA: UUUGAUUAAUAUGAUAUCGUUCUUUCUGUUGUAUUAUUAUUUUCUUUCUCGAUAUCAUAUUAAUCUUU	2.47
Id_ii_S2_P5E.2_K5.1_C5.2_[C-2G]_H5.1_A5.1_F5.1_T5.2_[T11G]_[A12T] (ssRNA) RNA: UUUGAUUAAUAUGAUAUCGUUCUUUCUGUUGUAUUAUUAGUUUCUUUCUCGAUAUCAUAUUAAUCUUU	3.05
Id_ii_S2_P5E.2_K5.1_C5.2_[C-2T]_[T-1G]_H5.1_A5.1_F5.1_T5.2_[T11A]_[A12T] (ssRNA) RNA: UUUGAUUAAUAUGAUAUCGUUCUUUCUUGUGUAUUAUUAAUUUCUUUCUCGAUAUCAUAUUAAUCUUU	1.41
UCUCUUUGUAAUACUAUCUCUU (ssRNA) [Ib_S1_P5E.1_K5.1_C5.1_H5.1_A5.1_[T5A]_F5.1_[T8C]_T5.1]	10.3
UCUCUUUGUAUCAGUAUCUCUU (ssRNA) [Ib_S1_P5E.1_K5.1_C5.1_H5.1_A5.1_[T6C]_F5.1_[T8G]_T5.1]	27.9
Id_ii_S2_P4E.4_K4.3_C4.2_[T-1G]_H4.3_A4.1_F4.1_T4.2_[G10C] (ssRNA) RNA: UUUGAUUAAUAUGAUAUCGUUCUUUCUCGACACUAUUACUUUCUUUCUCGAUAUCAUAUUAAUCUUU	> 2300
Id_ii_S2_P4E.4_K4.3_C4.2_[T-1C]_H4.3_A4.1_F4.1_T4.2_[G10A]_[T11A] (ssRNA) RNA: UUUGAUUAAUAUGAUAUCGUUCUUUCUCCACACUAUUAAAUUCUUUCUCGAUAUCAUAUUAAUCUUU	> 2300
Id_ii_S2_P4E.4_K4.3_C4.2_[T-1C]_H4.3_A4.1_F4.1_T4.2_[G10T] (ssRNA) RNA: UUUGAUUAAUAUGAUAUCGUUCUUUCUCCACACUAUUAUUUUCUUUCUCGAUAUCAUAUUAAUCUUU	2050
Id_ii_S2_P4E.4_K4.3_C4.2_[T-1C]_H4.3_A4.1_F4.1_T4.2_[G10A] (ssRNA) RNA: UUUGAUUAAUAUGAUAUCGUUCUUUCUCCACACUAUUAAUUUCUUUCUCGAUAUCAUAUUAAUCUUU	> 2300
Id_ii_S2_P4E.4_K4.3_C4.2_[T-1A]_H4.3_A4.1_F4.1_T4.2_[T11C] (ssRNA) RNA: UUUGAUUAAUAUGAUAUCGUUCUUUCUCAACACUAUUAGCUUCUUUCUCGAUAUCAUAUUAAUCUUU	> 2300
Id_ii_S2_P4E.4_K4.3_C4.2_H4.3_A4.1_F4.1_T4.2_[G10T]_[T11A] (ssRNA) RNA: UUUGAUUAAUAUGAUAUCGUUCUUUCUCUACACUAUUAUAUUCUUUCUCGAUAUCAUAUUAAUCUUU	459
Id_ii_S2_P4E.4_K4.3_C4.2_[T-1C]_H4.3_A4.1_F4.1_T4.2 (ssRNA) RNA: UUUGAUUAAUAUGAUAUCGUUCUUUCUCCACACUAUUAGUUUCUUUCUCGAUAUCAUAUUAAUCUUU	> 2300
Id_ii_S2_P4E.4_K4.3_C4.2_[T-1G]_H4.3_A4.1_F4.1_T4.2_[G10A]_[T11C] (ssRNA) RNA: UUUGAUUAAUAUGAUAUCGUUCUUUCUCGACACUAUUAACUUCUUUCUCGAUAUCAUAUUAAUCUUU	> 2300

Binder	Kd [nM]
Id_ii_S2_P4E.4_K4.3_C4.2_H4.3_A4.1_F4.1_T4.2_[G10T] (ssRNA) RNA: UUUGAUUAAUAUGAUAUCGUUCUUUCUCUACACUAUUAUUUUCUUUCUCGAUAUCAUAUUAAUCUUU	528
Id_ii_S2_P4E.4_K4.3_C4.2_[T-1A]_H4.3_A4.1_F4.1_T4.2_[G10C] (ssRNA) RNA: UUUGAUUAAUAUGAUAUCGUUCUUUCUCAACACUAUUACUUUCUUUCUCGAUAUCAUAUUAAUCUUU	> 2300
Id_ii_S2_P4E.4_K4.3_C4.2_H4.3_A4.1_F4.1_T4.2_[G10A] (ssRNA) RNA: UUUGAUUAAUAUGAUAUCGUUCUUUCUCUACACUAUUAAUUUCUUUCUCGAUAUCAUAUUAAUCUUU	498
Id_ii_S2_P4E.4_K4.3_C4.2_[T-1A]_H4.3_A4.1_F4.1_T4.2 (ssRNA) RNA: UUUGAUUAAUAUGAUAUCGUUCUUUCUCAACACUAUUAGUUUCUUUCUCGAUAUCAUAUUAAUCUUU	> 2300
Id_ii_S2_P4E.4_K4.3_C4.2_[T-1A]_H4.3_A4.1_F4.1_T4.2_[G10A] (ssRNA) RNA: UUUGAUUAAUAUGAUAUCGUUCUUUCUCAACACUAUUAAUUUCUUUCUCGAUAUCAUAUUAAUCUUU	> 2300
Id_ii_S2_P4E.4_K4.3_C4.2_[T-1A]_H4.3_A4.1_F4.1_T4.2_[G10A]_[T11C] (ssRNA) RNA: UUUGAUUAAUAUGAUAUCGUUCUUUCUCAACACUAUUAACUUCUUUCUCGAUAUCAUAUUAAUCUUU	2240
Id_ii_S2_P4E.4_K4.3_C4.2_[T-1G]_H4.3_A4.1_F4.1_T4.2_[G10T] (ssRNA) RNA: UUUGAUUAAUAUGAUAUCGUUCUUUCUCGACACUAUUAUUUUCUUUCUCGAUAUCAUAUUAAUCUUU	> 2300
Id_ii_S2_P4E.4_K4.3_C4.2_[T-1C]_H4.3_A4.1_F4.1_T4.2_[G10C]_[T11C] (ssRNA) RNA: UUUGAUUAAUAUGAUAUCGUUCUUUCUCCACACUAUUACCUUCUUUCUCGAUAUCAUAUUAAUCUUU	> 2300
Id_ii_S2_P4E.4_K4.3_C4.2_[T-1G]_H4.3_A4.1_F4.1_T4.2_[G10T]_[T11C] (ssRNA) RNA: UUUGAUUAAUAUGAUAUCGUUCUUUCUCGACACUAUUAUCUUCUUUCUCGAUAUCAUAUUAAUCUUU	> 2300
Id_ii_S2_P4E.4_K4.3_C4.2_H4.3_A4.1_F4.1_T4.2 (ssRNA) RNA: UUUGAUUAAUAUGAUAUCGUUCUUUCUCUACACUAUUAGUUUCUUUCUCGAUAUCAUAUUAAUCUUU	> 2300
Id_ii_S2_P4E.4_K4.3_C4.2_H4.3_A4.1_F4.1_T4.2_[G10C]_[T11A] (ssRNA) RNA: UUUGAUUAAUAUGAUAUCGUUCUUUCUCUACACUAUUACAUUCUUUCUCGAUAUCAUAUUAAUCUUU	471
Id_ii_S2_P4E.4_K4.3_C4.2_H4.3_A4.1_F4.1_T4.2_[G10C]_[T11C] (ssRNA) RNA: UUUGAUUAAUAUGAUAUCGUUCUUUCUCUACACUAUUACCUUCUUUCUCGAUAUCAUAUUAAUCUUU	563
Id_ii_S2_P4E.4_K4.3_C4.2_[T-1A]_H4.3_A4.1_F4.1_T4.2_[G10C]_[T11A] (ssRNA) RNA: UUUGAUUAAUAUGAUAUCGUUCUUUCUCAACACUAUUACAUUCUUUCUCGAUAUCAUAUUAAUCUUU	> 2300
Id_ii_S2_P4E.4_K4.3_C4.2_[T-1C]_H4.3_A4.1_F4.1_T4.2_[G10T]_[T11A] (ssRNA) RNA: UUUGAUUAAUAUGAUAUCGUUCUUUCUCCACACUAUUAUAUUCUUUCUCGAUAUCAUAUUAAUCUUU	594
Id_ii_S2_P4E.4_K4.3_C4.2_H4.3_A4.1_F4.1_T4.2_[G10C]_[T11G] (ssRNA) RNA: UUUGAUUAAUAUGAUAUCGUUCUUUCUCUACACUAUUACGUUCUUUCUCGAUAUCAUAUUAAUCUUU	> 2300
Id_ii_S2_P4E.4_K4.3_C4.2_[T-1A]_H4.3_A4.1_F4.1_T4.2_[G10T]_[T11A] (ssRNA) RNA: UUUGAUUAAUAUGAUAUCGUUCUUUCUCAACACUAUUAUAUUCUUUCUCGAUAUCAUAUUAAUCUUU	748
Id_ii_S2_P4E.4_K4.3_C4.2_[T-1A]_H4.3_A4.1_F4.1_T4.2_[G10C]_[T11C] (ssRNA) RNA: UUUGAUUAAUAUGAUAUCGUUCUUUCUCAACACUAUUACCUUCUUUCUCGAUAUCAUAUUAAUCUUU	> 2300
Id_ii_S2_P4E.4_K4.3_C4.2_H4.3_A4.1_F4.1_T4.2_[T11C] (ssRNA) RNA: UUUGAUUAAUAUGAUAUCGUUCUUUCUCUACACUAUUAGCUUCUUUCUCGAUAUCAUAUUAAUCUUU	1620
Id_ii_S2_P4E.4_K4.3_C4.2_[T-1G]_H4.3_A4.1_F4.1_T4.2_[G10A] (ssRNA) RNA: UUUGAUUAAUAUGAUAUCGUUCUUUCUCGACACUAUUAAUUUCUUUCUCGAUAUCAUAUUAAUCUUU	> 2300
Id_ii_S2_P4E.4_K4.3_C4.2_[T-1G]_H4.3_A4.1_F4.1_T4.2_[G10A]_[T11A] (ssRNA) RNA: UUUGAUUAAUAUGAUAUCGUUCUUUCUCGACACUAUUAAAUUCUUUCUCGAUAUCAUAUUAAUCUUU	> 2300
UCUCUUUGUACUAAUAUCUCUU (ssRNA) [Ic_S1_P5E.1_K5.1_C5.1_H5.1_A5.1_[T5C]_F5.1_[T8A]_T5.1]	12.5
UCUCUUUGUAAUAAUAUCUCUU (ssRNA) [Ib_S1_P5E.1_K5.1_C5.1_H5.1_A5.1_[T5A]_F5.1_[T8A]_T5.1]	17.8
